The numbers were not newly measured in PMC4184467, which cites them from elsewhere.

In general, pKa refers to the negative logarithm of the acid dissociation constant.

The subject of the series is Lys64. To be noted: wild-type enzyme, zinc-bound.

For “Carbonic anhydrase III (CA III) (Homo sapiens)”, the pKa is given as 9.0.
